Measurements reported in US7803757B2, “Peptides based on the sequence of human lactoferrin and their use” (PharmaSurgics in Sweden AB, priority 1998, dated 2010).

How the values were obtained:
[1] = tested on: Candida albicans; test: fungicidal activity against Candida albicans strains (Example 4); assay type: cell-based
Protocol: (§1) In this example the fungicidal activity of the peptides according to the invention was tested and compared to the fungicidal activity of human lactoferrin. Different concentrations of hLF, peptide 3 and peptide 4 were incubated with different strains of Candida albicans and Candida krusei during 1-2 hours at 37° C. in 0.05 mM KCl at pH 7.0 at two different occasions—experiment I and II, respectively. After incubation samples were taken for plating on Saboroud plates.

[2] = tested on: E. coli O6K5; test: urinary tract infection in mice, bacteria (CFU) in kidney (Example 6); assay type: in vivo; settings: Exp II, mouse strain C3H/Tif, 500 μg per mouse orally 30 minutes after instillation, 24 hours
Protocol: E. coli O6K5 was instilled into the urinary bladder of mice. 30 minutes after instillation the different agents specified in table 5 were administered orally in an amount of 500 μg per mouse and 24 hours after instillation the number of bacteria (CFU) present in bladder and in kidney was determined.
The control group consisted of 10 animals in experiment I and of 23 animals in experiment II. The animals in the control groups were given tap water instead of peptide or hLF.

[3] = tested on: C. albicans (ATCC 64549); test: microbe, parasite or virus in culture; settings: C. albicans ATCC 64549, 2×10^5 cells/ml, BHI diluted 1/100
Protocol: In the examples, the minimal microbicidal concentrations (MMC) and minimal inhibitory concentrations (MIC) were determined as follows, unless otherwise specified in the examples. Bacterial or fungal strains were cultured in BHI medium over night at 37° C. A volume of the culture was transferred to a new tube with BHI and incubated for two more hours. Thereafter the cells were spun down and the pellet was suspended in BHI medium diluted 1/100 (1% BHI). The concentration of bacterial or fungal cells was spectrophotometrically determined at 650 nm. The microbial concentrations were also determined by viable counts. Peptides serially diluted in 1% BHI by twofold or tenfold steps were added in triplicate to the wells of a microtiterplate (200 μl per well). The bacterial or fungal cell solutions were added in 10 μl volumes to give a final concentration of approximately 1-5×10^5 cells per ml in the well. The microplate was incubated at 37° C. in a humid chamber for two hours. […] The microplate was incubated for another 20 hours at 37° C. and thereafter analysed spectrophotometrically at 650 nm in a microplate reader (Emax, Molecular Devices, USA). […] The MIC value was defined as the concentration giving no increase in the absorbance value above the background level after 20 hours of incubation. […]

[4] = tested on: Candida krusei; test: fungicidal activity against Candida krusei strains (Example 4); assay type: cell-based; settings: Exp. I
Protocol: as §1

[5] = tested on: Candida albicans; test: fungicidal activity against Candida albicans, comparison with EP-A-0 629 347 peptides (Example 7); assay type: cell-based; settings: C. albicans, I (tenfold steps)
Protocol: In this example an in vitro test was performed to compare the bactericidal and fungicidal activity of the peptides according to the invention with peptides described in EP-A-0 629 347. The peptide according to the invention used was peptide 4, and the peptides according to EP-A-0 629 347 called Morinaga 10, Morinaga 11, Morinaga 12, and Morinaga 13.
The peptides were incubated with E. coli O14 and Candida albicans. Two concentrations of C. albicans yeast cells were tested, 5·10^6 and 5·10^3 per ml. Different concentrations of the peptides were tested.
After the incubation, samples were taken for bacterial plating. Serial dilutions of tenfold steps were used in the experiments marked with I in table 5 and of twofold steps in the experiments marked with II.

[6] = tested on: E. coli O14; test: bactericidal activity, incubation with E. coli O14 (Example 3, exp. I and III); assay type: cell-based
Protocol: (§2) Human lactoferrin (hLF), peptide 3, and peptide 4, respectively, were incubated with two different strains of E. coli, E. coli O14 (experiment I) and O6K5 (experiment II), in diluted growth medium ( 1/100 BHI—brain heart infusion) for 2 hours. The peptides were also incubated with E. coli O14 in 0.05 mM KCl (pH 7) without any growth medium (experiment III). Different concentrations of the peptides were tested.
(§3) After the incubation, samples were taken for bacterial plating. Serial dilutions of five- and fourfold steps were used in experiments I and II, respectively, and of twofold steps in experiment III.
(§4) The concentrations of the different peptides required for killing 100% (experiments I and II) or 90% (experiment III) of the bacteria are given in table 2.

[7] = tested on: LPS-induced IL-6 response in a monocytic cell line (THP-1); test: inhibition of LPS-induced IL-6 response in THP-1 cells (Example 5); assay type: cell-based; settings: IL-6 response in THP-1 cells, agent added 30 minutes after LPS
Protocol: In this example an in vitro test was performed to study the anti-inflammatory activity of the peptides according to the invention. More precisely, the inhibitory effect of the peptides according to the invention on the LPS-induced IL-6 response in a monocytic cell line (THP-1) was studied and compared to the effect of human lactoferrin by use of the method described by I. Mattsby-Baltzer et al., Pediatr. Res. 40:257-262, 1996. The IL-6 response in the THP-1 cells was induced by addition of LPS. hLF, peptide 3 and peptide 4, respectively, were added 30 minutes after LPS.

[8] = tested on: E. coli O6K5; test: bactericidal activity, incubation with E. coli O6K5 (Example 3, exp. II); assay type: cell-based; settings: Exp. II: 100% killing, E. coli O6K5, 1/100 BHI, 2 hours
Protocol: as §2, §3, §4

B1: human lactoferrin (protein, UniProt P02788 20-710, looked up)
Lactotransferrin: GRRRSVQWCAVSQPEATKCFQWQRNMRKVRGPPVSCIKRDSPIQCIQAIAENRADAVTLDGGFIYEAGLAPYKLRPVAAEVYGTERQPRTHYYAVAVVKKGGSFQLNELQGLKSCHTGLRRTAGWNVPIGTLRPFLNWTGPPEPIEAAVARFFSASCVPGADKGQFPNLCRLCAGTGENKCAFSSQEPYFSYSGAFKCLRDGAGDVAFIRESTVFEDLSDEAERDEYELLCPDNTRKPVDKFKDCHLARVPSHAVVARSVNGKEDAIWNLLRQAQEKFGKDKSPKFQLFGSPSGQKDLLFKDSAIGFSRVPPRIDSGLYLGSGYFTAIQNLRKSEEEVAARRARVVWCAVGEQELRKCNQWSGLSEGSVTCSSASTTEDCIALVLKGEADAMSLDGGYVYTAGKCGLVPVLAENYKSQQSSDPDPNCVDRPVEGYLAVAVVRRSDTSLTWNSVKGKKSCHTAVDRTAGWNIPMGLLFNQTGSCKFDEYFSQSCAPGSDPRSNLCALCIGDEQGENKCVPNSNERYYGYTGAFRCLAENAGDVAFVKDVTVLQNTDGNNNEAWAKDLKLADFALLCLDGKRKPVTEARSCHLAMAPNHAVVSRMDKVERLKQVLLHQQAKFGRNGSDCPDKFCLFQSETKNLLFNDNTECLARLHGKTTYEKYLGPQYVAGITNLKKCSTSPLLEACEFLRK
- Concentration of agent for 99% killing ([1]; Exp. I, C. albicans ATCC 64549, 0.05 mM KCl pH 7.0, 1-2 hours 37° C.): >50 µg/mL
- Concentration of agent for 99% killing ([1]; Exp. I, C. albicans CCUG 90028, 0.05 mM KCl pH 7.0): >50 µg/mL
- Concentration of agent for 99% killing ([1]; Exp. II, C. albicans ATCC 64549, 0.05 mM KCl pH 7.0): >200 µg/mL
- Concentration of agent for 99% killing ([1]; Exp. II, C. albicans CCUG 599, 0.05 mM KCl pH 7.0): >200 µg/mL
- Concentration of agent for 99% killing ([1]; Exp. II, C. albicans CCUG 1759, 0.05 mM KCl pH 7.0): >200 µg/mL
- Statistical comparison of treatment group with control group of the number of bacteria, CFU, present in kidney (p, Mann-Whitney) [2]: p = 0.006
- MIC [3]: 1000 µg/mL
- MMC99% [3]: >1000 µg/mL
- Concentration of agent for 99% killing ([4]; C. krusei CCUG 969, 0.05 mM KCl pH 7.0): 25 µg/mL
- Concentration of agent for 99% killing ([4]; C. krusei CCUG 35849, 0.05 mM KCl pH 7.0): 12.5 µg/mL
- Concentration of agent for 100% killing ([5]; 5 · 10^3 yeast cells per ml): >2000 µg/mL
- Concentration of agent for 100% killing ([5]; 5 · 10^6 yeast cells per ml): >1000 µg/mL
- Concentration of agent for 100%/90% killing ([6]; Exp. I: 100% killing, E. coli O14, 1/100 BHI, 2 hours): 400 µg/mL
- Concentration of agent for 100%/90% killing ([6]; Exp. III: 90% killing, E. coli O14, 0.05 mM KCl (pH 7) without growth medium): >4000 µg/mL
- % inhibition of LPS response [7]: 15%
- Concentration of agent for 100%/90% killing [8]: 2000 µg/mL
